For 20 molecules, koff results are on record in patent publication US20220380463A1 (Adimab, published 2022).

The chains are these.
T1: Cynomolgus CD3εδ Fc heterodimer (Cy CD3ε Fc / CD3δ Fc-HIS) (cynomolgus, UniProt Q95LI8 22-100)
T1 chain 1: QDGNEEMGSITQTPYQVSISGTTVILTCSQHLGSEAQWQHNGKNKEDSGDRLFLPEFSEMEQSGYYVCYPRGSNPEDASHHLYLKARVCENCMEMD
T1 chain 2: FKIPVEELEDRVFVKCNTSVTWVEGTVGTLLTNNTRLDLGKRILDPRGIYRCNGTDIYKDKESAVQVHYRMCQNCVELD

B1: SAD10319_P05_D01 (ADI-57406) (antibody, V domains shown)
VH: QVQLVQSGAEVKKPGASVKVSCKASGYTFTEYDMHWVRQAPGQTLEWMGWIDAGTGATVYSQKFQGRVTITRDTSASTAYMELSSLRSEDTAVYYCARDAYGRYFYDHWGQGTLVTVSS
VL: DIVMTQSPDSLAVSLGERATINCKSSQSLLNARTGKNYLAWYQQKPGQPPKLLIYWASTRESGVPDRFSGSGSGTDFTLTISSLQAEDVAVYYCKQSYSRRTFGGGTKVEIK
notes: IgG; also called Ab133
B2: SAD10319_P05_D03 (ADI-57408) (antibody, V domains shown)
VH: QVQLVQSGAEVKKPGASVKVSCKASGYTFTDDAMHWVRQAPGHRLEWMGWIDAGTGNTYYSQKFQGRVTITRDTSASTAYMELSSLRSEDTAVYYCAHDAYGHYFYDVWGQGTLVTVSS
VL: DIVMTQSPDSLAVSLGERATINCKSSQSLLNARTGKNYLAWYQQKPGQPPKLLIYWASTRESGVPDRFSGSGSGTDFTLTISSLQAEDVAVYYCKQSYSRRTFGGGTKVEIK
notes: IgG; also called Ab135
B3: SAD10319_P05_G01 (ADI-57413) (antibody, V domains shown)
VH: QVQLVQSGAEVKKPGASVKVSCKASGYTFNNYAMHWVRQAPGQSLEWMGWIDAGTGNTDYSQKFQGRVTITRDTSASTAYMELSSLRSEDTAVYYCARDAHHRYFYDVWGQGTLVTVSS
VL: DIVMTQSPDSLAVSLGERATINCKSSQSLLNARTGKNYLAWYQQKPGQPPKLLIYWASTRESGVPDRFSGSGSGTDFTLTISSLQAEDVAVYYCKQSYSRRTFGGGTKVEIK
B4: SAD10319_P05_G03 (ADI-57415) (antibody, V domains shown)
VH: QVQLVQSGAEVKKPGASVKVSCKASGYTFHSYNMHWVRQAPGHRLEWMGWINPDTGATDYSQKFQGRVTITRDTSASTAYMELSSLRSEDTAVYYCARDAYGRYFYDVWGQGTLVTVSS
VL: DIVMTQSPDSLAVSLGERATINCKSSQSLLNARTGKNYLAWYQQKPGQPPKLLIYWASTRESGVPDRFSGSGSGTDFTLTISSLQAEDVAVYYCKQSYSRRTFGGGTKVEIK
notes: IgG; also called Ab143
B5: SAD10319_P05_D05 (ADI-57410) (antibody, V domains shown)
VH: QVQLVQSGAEVKKPGASVKVSCKASGYTFADYAMHWVRQAPGHRLEWMGDIIAGTGATKYSQKFQGRVTITRDTSASTAYMELSSLRSEDTAVYYCARDHYGHYFYDVWGQGTLVTVSS
VL: DIVMTQSPDSLAVSLGERATINCKSSQSLLNARTGKNYLAWYQQKPGQPPKLLIYWASTRESGVPDRFSGSGSGTDFTLTISSLQAEDVAVYYCKQSYSRRTFGGGTKVEIK
notes: IgG; also called Ab138
B6: SAD10319_P06_C10 (ADI-57423) (antibody, V domains shown)
VH: QVQLVQSGAEVKKPGASVKVSCKASGYTFTEYVMHWVRQAPGPRLEWMGDIDAGTGATKYSQKFQGRVTITRDTSASTAYMELSSLRSEDTAVYYCARDAYHHYFYDVWGQGTLVTVSS
VL: DIVMTQSPDSLAVSLGERATINCKSSQSLLNARTGKNYLAWYQQKPGQPPKLLIYWASTRESGVPDRFSGSGSGTDFTLTISSLQAEDVAVYYCKQSYSRRTFGGGTKVEIK
notes: IgG; also called Ab152
B7: SAD10319_P05_E04 (ADI-57411) (antibody, V domains shown)
VH: QVQLVQSGAEVKKPGASVKVSCKASGYTFTGYEMHWVRQAPGQRLEWMGWINPSTGNTVYSQKFQGRVTITRDTSASTAYMELSSLRSEDTAVYYCARDHYGHYFYDVWGQGTLVTVSS
VL: DIVMTQSPDSLAVSLGERATINCKSSQSLLNARTGKNYLAWYQQKPGQPPKLLIYWASTRESGVPDRFSGSGSGTDFTLTISSLQAEDVAVYYCKQSYSRRTFGGGTKVEIK
notes: IgG; also called Ab139
B8: SAD10319_P06_E08 (ADI-57426) (antibody, V domains shown)
VH: QVQLVQSGAEVKKPGASVKVSCKASGYTFIKYVMHWVRQAPGQRLEWMGDIDPDTGATEYSQKFQGRVTITRDTSASTAYMELSSLRSEDTAVYYCARDDYHHYFYDVWGQGTLVTVSS
VL: DIVMTQSPDSLAVSLGERATINCKSSQSLLNARTGKNYLAWYQQKPGQPPKLLIYWASTRESGVPDRFSGSGSGTDFTLTISSLQAEDVAVYYCKQSYSRRTFGGGTKVEIK
notes: IgG; also called Ab155
B9: SAD10319_P06_C12 (ADI-57424) (antibody, V domains shown)
VH: QVQLVQSGAEVKKPGASVKVSCKASGYTFDSYEMHWVRQAPGHRLEWMGWINPLTGATKYSQKFQGRVTITRDTSASTAYMELSSLRSEDTAVYYCARDHYGHYFYDVWGQGTLVTVSS
VL: DIVMTQSPDSLAVSLGERATINCKSSQSLLNARTGKNYLAWYQQKPGQPPKLLIYWASTRESGVPDRFSGSGSGTDFTLTISSLQAEDVAVYYCKQSYSRRTFGGGTKVEIK
notes: IgG; also called Ab153
B10: SAD10319_P05_G04 (ADI-57416) (antibody, V domains shown)
VH: QVQLVQSGAEVKKPGASVKVSCKASGYTFTSYGMHWVRQAPGQRLEWMGWIDPVTGATDYSQKFQGRVTITRDTSASTAYMELSSLRSEDTAVYYCARDAHGRYFYDHWGQGTLVTVSS
VL: DIVMTQSPDSLAVSLGERATINCKSSQSLLNARTGKNYLAWYQQKPGQPPKLLIYWASTRESGVPDRFSGSGSGTDFTLTISSLQAEDVAVYYCKQSYSRRTFGGGTKVEIK
notes: IgG; also called Ab144
B11: SAD10319_P05_G02 (ADI-57414) (antibody, V domains shown)
VH: QVQLVQSGAEVKKPGASVKVSCKASGYTFTTYAMHWVRQAPGQRLEWMGWIDPVTGNTKYSQKFQGRVTITRDTSASTAYMELSSLRSEDTAVYYCARDHYGRYFYDHWGQGTLVTVSS
VL: DIVMTQSPDSLAVSLGERATINCKSSQSLLNARTGKNYLAWYQQKPGQPPKLLIYWASTRESGVPDRFSGSGSGTDFTLTISSLQAEDVAVYYCKQSYSRRTFGGGTKVEIK
notes: IgG; also called Ab142
B12: SAD10319_P06_A11 (ADI-57420) (antibody, V domains shown)
VH: QVQLVQSGAEVKKPGASVKVSCKASGYTFDSIAMHWVRQAPGQRLEWMGWINPATGNTDYSQKFQGRVTITRDTSASTAYMELSSLRSEDTAVYYCARDAYGHYFYDHWGQGTLVTVSS
VL: DIVMTQSPDSLAVSLGERATINCKSSQSLLNARTGKNYLAWYQQKPGQPPKLLIYWASTRESGVPDRFSGSGSGTDFTLTISSLQAEDVAVYYCKQSYSRRTFGGGTKVEIK
notes: IgG; also called Ab149
B13: SAD10319_P06_D12 (ADI-57425) (antibody, V domains shown)
VH: QVQLVQSGAEVKKPGASVKVSCKASGYTFNRYVMHWVRQAPGQRLEWMGGIDAGTGATKYSQKFQGRVTITRDTSASTAYMELSSLRSEDTAVYYCARDAHRHYFYDVWGQGTLVTVSS
VL: DIVMTQSPDSLAVSLGERATINCKSSQSLLNARTGKNYLAWYQQKPGQPPKLLIYWASTRESGVPDRFSGSGSGTDFTLTISSLQAEDVAVYYCKQSYSRRTFGGGTKVEIK
B14: SAD10319_P06_A10 (ADI-57419) (antibody, V domains shown)
VH: QVQLVQSGAEVKKPGASVKVSCKASGYTFTGYEMHWVRQAPGQRLEWMGWINPVTGATAYSQKFQGRVTITRDTSASTAYMELSSLRSEDTAVYYCARDAYGHYFYDHWGQGTLVTVSS
VL: DIVMTQSPDSLAVSLGERATINCKSSQSLLNARTGKNYLAWYQQKPGQPPKLLIYWASTRESGVPDRFSGSGSGTDFTLTISSLQAEDVAVYYCKQSYSRRTFGGGTKVEIK
notes: IgG; also called Ab148
B15: SAD10319_P05_D04 (ADI-57409) (antibody, V domains shown)
VH: QVQLVQSGAEVKKPGASVKVSCKASGYTFTSDYMHWVRQAPGQRLEWMGWINAGTGATDYSQKFQGRVTITRDTSASTAYMELSSLRSEDTAVYYCAHDAYGRYHYDVWGQGTLVTVSS
VL: DIVMTQSPDSLAVSLGERATINCKSSQSLLNARTGKNYLAWYQQKPGQPPKLLIYWASTRESGVPDRFSGSGSGTDFTLTISSLQAEDVAVYYCKQSYSRRTFGGGTKVEIK
notes: IgG; also called Ab137
B16: SAD10319_P06_B11 (ADI-57422) (antibody, V domains shown)
VH: QVQLVQSGAEVKKPGASVKVSCKASGYTFHSYDMHWVRQAPGQRLEWMGWIDAGTGATTYSQKFQGRVTITRDTSASTAYMELSSLRSEDTAVYYCARDAYGHYFYDVWGQGTLVTVSS
VL: DIVMTQSPDSLAVSLGERATINCKSSQSLLNARTGKNYLAWYQQKPGQPPKLLIYWASTRESGVPDRFSGSGSGTDFTLTISSLQAEDVAVYYCKQSYSRRTFGGGTKVEIK
notes: IgG; also called Ab151
B17: SAD10319_P05_D02 (ADI-57407) (antibody, V domains shown)
VH: QVQLVQSGAEVKKPGASVKVSCKASGYTFDSYTMHWVRQAPGPRLEWMGSINAGTGNTDYSQKFQGRVTITRDTSASTAYMELSSLRSEDTAVYYCARDHYGHYFYDVWGQGTLVTVSS
VL: DIVMTQSPDSLAVSLGERATINCKSSQSLLNARTGKNYLAWYQQKPGQPPKLLIYWASTRESGVPDRFSGSGSGTDFTLTISSLQAEDVAVYYCKQSYSRRTFGGGTKVEIK
notes: IgG; also called Ab134
B18: SAD10319_P05_H06 (ADI-57417) (antibody, V domains shown)
VH: QVQLVQSGAEVKKPGASVKVSCKASGYTFTEYDMHWVRQAPGPTLEWMGWIDAGTGATVYSQKFQGRVTITRDTSASTAYMELSSLRSEDTAVYYCARDAYGRYFYDHWGQGTLVTVSS
VL: DIVMTQSPDSLAVSLGERATINCKSSQSLLNARTGKNYLAWYQQKPGQPPKLLIYWASTRESGVPDRFSGSGSGTDFTLTISSLQAEDVAVYYCKQSYSRRTFGGGTKVEIK
notes: IgG; also called Ab145
B19: SAD10319_P06_B10 (ADI-57421) (antibody, V domains shown)
VH: QVQLVQSGAEVKKPGASVKVSCKASGYTFTEYVMHWVRQAPGQRLEWMGDIDAGTGATKYSQKFQGRVTITRDTSASTAYMELSSLRSEDTAVYYCARDAYHHYFYDVWGQGTLVTVSS
VL: DIVMTQSPDSLAVSLGERATINCKSSQSLLNARTGKNYLAWYQQKPGQPPKLLIYWASTRESGVPDRFSGSGSGTDFTLTISSLQAEDVAVYYCKQSYSRRTFGGGTKVEIK
notes: IgG; also called Ab150
B20: SAD10319_P05_F01 (ADI-57412) (antibody, V domains shown)
VH: QVQLVQSGAEVKKPGASVKVSCKASGYTFTDDAMHWVRQAPGQSLEWMGWIDAGTGNTYYSQKFQGRVTITRDTSASTAYMELSSLRSEDTAVYYCAHDAYGHYFYDVWGQGTLVTVSS
VL: DIVMTQSPDSLAVSLGERATINCKSSQSLLNARTGKNYLAWYQQKPGQPPKLLIYWASTRESGVPDRFSGSGSGTDFTLTISSLQAEDVAVYYCKQSYSRRTFGGGTKVEIK
notes: IgG; also called Ab140

The target in the assay is T1, Cynomolgus CD3εδ Fc heterodimer (Cy …). The assay can be described thus: BLI (Octet), IgG on AHC sensor, pH 6.0. (BLI is a label-free optical method that tracks binding on a fibre tip over time.)
As usually defined, the koff is the rate constant with which the complex falls apart. Read a high koff as fast dissociation. For B1, the koff turned out to be 0.00929 s⁻¹.
Molecule B2 registered a koff of 0.0233 s⁻¹.
To B3 belongs 0.0236 s⁻¹; to B4, 0.0167 s⁻¹; to B5, 0.0158 s⁻¹.
To B6 belongs 0.00318 s⁻¹; to B7, 0.00373 s⁻¹; to B8, 0.0105 s⁻¹.
To B9 belongs 0.00756 s⁻¹; to B10, 0.00389 s⁻¹; to B11, 0.0156 s⁻¹.
Molecule B12 gave an off-rate constant (koff) of 0.00279 s⁻¹.
To B13 belongs 0.0192 s⁻¹.
The molecule B14 came in with a koff of 0.0246 s⁻¹.
To B15 belongs 0.022 s⁻¹; to B16, 0.0101 s⁻¹.
For B17, the koff is 0.0241 s⁻¹.
To B18 belongs 0.0104 s⁻¹.
B19 gave a dissociation rate constant (koff) of 0.002 s⁻¹.
Regarding B20, the koff is 0.0214 s⁻¹.
